Laboratory results published in IntAct's records for PubMed 23917616.

B1: Myotubularin (Homo sapiens), Q13496 (parent)
chain: MASASTSKYNSHSLENESIKRTSRDGVNRDLTEAVPRLPGETLITDKEVIYICPFNGPIKGRVYITNYRLYLRSLETDSSLILDVPLGVISRIEKMGGATSRGENSYGLDITCKDMRNLRFALKQEGHSRRDMFEILTRYAFPLAHSLPLFAFLNEEKFNVDGWTVYNPVEEYRRQGLPNHHWRITFINKCYELCDTYPALLVVPYRASDDDLRRVATFRSRNRIPVLSWIHPENKTVIVRCSQPLVGMSGKRNKDDEKYLDVIRETNKQISKLTIYDARPSVNAVANKATGGGYESDDAYHNAELFFLDIHNIHVMRESLKKVKDIVYPNVEESHWLSSLESTHWLEHIKLVLTGAIQVADKVSSGKSSVLVHCSDGWDRTAQLTSLAMLMLDSFYRSIEGFEILVQKEWISFGHKFASRIGHGDKNHTDADRSPIFLQFIDCVWQMSKQFPTAFEFNEQFLIIILDHLYSCRFGTFLFNCESARERQKVTERTVSLWSLINSNKEKFKNPFYTKEINRVLYPVASMRHLELWVNYYIRWNPRIKQQQPNPVEQRYMELLALRDEYIKRLEELQLANSAKLSDPPTSPSSPSQMMPHVQTHF
partner: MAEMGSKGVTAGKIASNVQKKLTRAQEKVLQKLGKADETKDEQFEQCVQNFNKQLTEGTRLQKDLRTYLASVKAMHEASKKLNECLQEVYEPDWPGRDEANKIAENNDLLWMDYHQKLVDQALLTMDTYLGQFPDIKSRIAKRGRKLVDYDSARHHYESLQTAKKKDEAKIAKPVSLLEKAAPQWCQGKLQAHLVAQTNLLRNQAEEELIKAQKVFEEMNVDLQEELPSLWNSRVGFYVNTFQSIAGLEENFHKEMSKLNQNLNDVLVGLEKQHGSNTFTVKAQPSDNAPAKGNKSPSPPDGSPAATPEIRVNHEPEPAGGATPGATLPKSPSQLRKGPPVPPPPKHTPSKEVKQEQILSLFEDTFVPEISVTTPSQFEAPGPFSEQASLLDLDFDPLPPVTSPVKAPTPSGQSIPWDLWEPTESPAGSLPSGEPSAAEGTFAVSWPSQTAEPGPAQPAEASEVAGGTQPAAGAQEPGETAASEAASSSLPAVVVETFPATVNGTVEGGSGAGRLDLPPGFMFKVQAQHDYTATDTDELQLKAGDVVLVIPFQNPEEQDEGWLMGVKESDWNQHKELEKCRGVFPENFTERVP

Variants of: B1
Conditions: with bin1_human BIN1, O00499

| effect of a mutation on the interaction | Variant |
| --- | --- |
| disrupting interaction | C375S |
